Measured values taken from US20150344937A1.

Target: murine CD4 (murine) (UniProt P06332)
Assay: quantitative flow cytometry on murine splenocytes, BD QuantiBrite PE microspheres as standard

Chain of UniProt P06332 (P06332 27-457): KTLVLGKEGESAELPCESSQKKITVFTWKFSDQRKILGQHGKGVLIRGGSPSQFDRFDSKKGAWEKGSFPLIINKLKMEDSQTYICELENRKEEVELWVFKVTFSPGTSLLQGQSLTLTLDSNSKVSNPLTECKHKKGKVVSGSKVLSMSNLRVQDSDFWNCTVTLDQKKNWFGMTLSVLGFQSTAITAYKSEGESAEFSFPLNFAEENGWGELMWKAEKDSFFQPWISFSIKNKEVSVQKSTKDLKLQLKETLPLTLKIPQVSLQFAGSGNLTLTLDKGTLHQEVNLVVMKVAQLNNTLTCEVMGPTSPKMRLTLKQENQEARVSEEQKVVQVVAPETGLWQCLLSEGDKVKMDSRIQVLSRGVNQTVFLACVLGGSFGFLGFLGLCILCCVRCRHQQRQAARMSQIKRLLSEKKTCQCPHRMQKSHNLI

- Antibody Binding per Cell (ABC) (CD4 antibody per cell): 29700
Substance: Commercially prepared anti-CD4 (clone GK1.5, phycoerythrin conjugate) (antibody)
